Values of other authors, collected in paper PMC6158072.

Legend:
Cys = details: not stated (presumably the reduced thiol form)

Substance | pKa (Lys) | pKa (Cys)
Acetoacetate decarboxylase (not stated (Clostridium acetobutylicum inferred)) | around 6 | –
Peroxiredoxin 5 (Prx5) (Homo sapiens) | – | 5.5
